Measured values reported in the supplement of paper PMC7125110.
± gives the standard error. For some of these results: This sample holds only a part of the variants without activity.

B1: glmS ribozyme (parent)
chain: AUAAAAGCGCCAGAACUACAGAAAUGUAGUUGACGAGGAGGAGGUUUAUCGAAUUUUCGGCGGAUGCCUCCAAA

What was measured:
Conditions in all cases: with glucosamine-6-phosphate
glucosamine-6-phosphate [1] = variants of: B1; test: kcat; higher = faster cleavage; RNA array
Summary of the method: (§1)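 Using a hybridised Cy3 probe at 37 °C, barcoded ribozyme variants transcribed in situ by E. coli RNA polymerase on sequenced MiSeq chips were monitored across tiles imaged over ~14 h. The flow contained glucosamine-6-phosphate from 40 μM to 10 mM in HEPES/KCl/Mg(OAc)2 buffer. Signals were normalised to baseline and to non-cleaving reference variants before per-tile medians were fit to one- or two-exponential decays to yield kobs. Weighted Michaelis–Menten fits across concentrations gave kcat and KM.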

glucosamine-6-phosphate [2] = variants of: B1; test: KM; higher = weaker cofactor use; RNA array
Summary of the method: as §1

glucosamine-6-phosphate [3] = variants of: B1; test: self-cleavage kobs at 40 uM GlcN6P; higher = faster cleavage; RNA array
Summary of the method: as §1

glucosamine-6-phosphate [4] = variants of: B1; test: self-cleavage kobs at 640 uM GlcN6P; higher = faster cleavage; RNA array
Summary of the method: as §1

glucosamine-6-phosphate [5] = variants of: B1; test: self-cleavage kobs at 2500 uM GlcN6P; higher = faster cleavage; RNA array
Summary of the method: as §1

glucosamine-6-phosphate [6] = variants of: B1; test: self-cleavage kobs at 10000 uM GlcN6P; higher = faster cleavage; RNA array
Summary of the method: as §1

glucosamine-6-phosphate [7] = variants of: B1; test: self-cleavage kobs at 160 uM GlcN6P; higher = faster cleavage; RNA array
Summary of the method: as §1

Row | Variant | kcat (glucosamine-6-phosphate [1]) [s⁻¹] | KM (glucosamine-6-phosphate [2]) [µM] | self-cleavage kobs at 40 uM GlcN6P (glucosamine-6-phosphate [3]) [s⁻¹] | self-cleavage kobs at 640 uM GlcN6P (glucosamine-6-phosphate [4]) [s⁻¹] | self-cleavage kobs at 2500 uM GlcN6P (glucosamine-6-phosphate [5]) [s⁻¹] | self-cleavage kobs at 10000 uM GlcN6P (glucosamine-6-phosphate [6]) [s⁻¹] | self-cleavage kobs at 160 uM GlcN6P (glucosamine-6-phosphate [7]) [s⁻¹]
1 | U30G U55C | 0.00519 ± 0.00037 | 883 ± 120 | 0.000236 ± 5e-05 | 0.00192 ± 0.00068 | 0.00363 ± 0.00086 | 0.00502 ± 0.00092 | 
2 | U30G U55G | 0.00756 ± 0.0019 | 1440 ± 590 | 0.00025 ± 5.1e-05 | 0.00222 ± 0.00047 | 0.00378 ± 0.00086 | 0.00866 ± 0.0016 | 
3 | G32A U54G | 0.00257 ± 0.00027 | 2600 ± 410 | 3.07e-05 ± 7.9e-06 | 0.000536 ± 5.3e-05 | 0.00121 ± 0.00012 | 0.00207 ± 0.00024 | 0.000162 ± 2.6e-05
4 | U31A C50G U65C C67U | 0.000126 ± 2.3e-05 |  | 8.02e-05 ± 1.6e-05 | 0.000147 ± 4.9e-05 | 0.000191 ± 4.1e-05 | 0.000104 ± 1.9e-05 | 0.000177 ± 5e-05
5 | G32A C68U | 0.0003 ± 1.7e-05 | 2170 ± 300 |  | 7.37e-05 ± 1.1e-05 | 0.000149 ± 1.9e-05 | 0.000251 ± 2e-05 | 
6 | U31A A33G C70A | 1.81e-05 ± 5.1e-06 |  |  |  |  |  | 
7 | U31G G40C | 0.00108 ± 0.00013 | 1280 ± 250 | 2.49e-05 ± 8e-06 | 0.000397 ± 5.8e-05 | 0.000864 ± 0.00017 | 0.0009 ± 0.00012 | 0.000124 ± 2e-05
8 | U31A C68G | 3.4e-05 ± 9.3e-07 | 408 ± 78 |  |  | 2.78e-05 ± 1.1e-05 | 3.32e-05 ± 8.1e-06 | 
9 | U31C C71U | 0.00657 ± 0.0031 |  | 0.000177 ± 1.7e-05 | 0.00111 ± 0.00013 | 0.00536 ± 0.00083 | 0.00504 ± 0.00056 | 0.000289 ± 3.6e-05
10 | U31C C58A | 0.000146 ± 6.8e-06 | 1390 ± 210 |  | 5.08e-05 ± 1.5e-05 | 8.99e-05 ± 1.5e-05 | 0.00013 ± 1.5e-05 | 
11 | U31G G66U U69G | 4.42e-05 ± 1.3e-05 |  |  |  | 6.07e-05 ± 1.6e-05 |  | 6.31e-05 ± 2.1e-05
12 | U31G G66U | 0.000571 ± 6e-05 | 2410 ± 400 |  | 0.000126 ± 1.5e-05 | 0.00029 ± 4.4e-05 | 0.000452 ± 8e-05 | 2.77e-05 ± 1e-05
13 | G32A U55A C68A | 3.25e-05 ± 3.5e-06 |  |  |  |  |  | 
14 | U31G U56C | 0.000772 ± 3.5e-05 | 2210 ± 180 |  | 0.000179 ± 2.9e-05 | 0.000413 ± 0.00012 | 0.000628 ± 9.2e-05 | 4.9e-05 ± 1.7e-05
15 | G32C C50U | < 1e-05 |  |  | < 1e-05 |  | < 1e-05 | 
16 | U31G U47G | 0.00226 ± 0.00055 | 1880 ± 720 | 7.25e-05 ± 1.9e-05 | 0.000663 ± 0.00011 | 0.0016 ± 0.00031 | 0.00176 ± 0.00028 | 0.000127 ± 3.3e-05
17 | U31C A52G C67U | 0.000208 ± 9.4e-05 |  |  | 9.07e-05 ± 3.5e-05 | 6.61e-05 ± 1.4e-05 | 0.000147 ± 2.6e-05 | 

Row | Variant | kcat (glucosamine-6-phosphate [1]) [s⁻¹] | KM (glucosamine-6-phosphate [2]) [µM] | self-cleavage kobs at 40 uM GlcN6P (glucosamine-6-phosphate [3]) [s⁻¹] | self-cleavage kobs at 640 uM GlcN6P (glucosamine-6-phosphate [4]) [s⁻¹] | self-cleavage kobs at 2500 uM GlcN6P (glucosamine-6-phosphate [5]) [s⁻¹] | self-cleavage kobs at 10000 uM GlcN6P (glucosamine-6-phosphate [6]) [s⁻¹] | self-cleavage kobs at 160 uM GlcN6P (glucosamine-6-phosphate [7]) [s⁻¹]
18 | G32A G41A | 0.00039 ± 9.1e-05 | 4740 ± 2000 |  | 6.12e-05 ± 1.1e-05 | 0.000116 ± 1.6e-05 | 0.000279 ± 3e-05 | 
19 | U30G C67U | 0.00191 ± 0.00047 | 924 ± 380 | 9.9e-05 ± 2.5e-05 | 0.000697 ± 0.00011 | 0.00139 ± 0.00022 | 0.00378 ± 0.0013 | 0.000289 ± 5.9e-05
20 | U30G C67G | 0.000155 ± 9.6e-06 | 2050 ± 310 |  | 3.99e-05 ± 9.3e-06 | 8.11e-05 ± 1e-05 | 0.000132 ± 1.6e-05 | 
21 | U31G G37A | 0.00148 ± 0.00038 | 5250 ± 1900 |  | 0.000144 ± 2.8e-05 | 0.000466 ± 7.3e-05 | 0.000999 ± 0.00019 | 6.42e-05 ± 1.6e-05
22 | U31C U47G | 0.000887 ± 0.00023 | 1440 ± 640 | 3.36e-05 ± 9.1e-06 | 0.000292 ± 4.5e-05 | 0.000426 ± 7e-05 | 0.00102 ± 0.00013 | 8.85e-05 ± 1.5e-05
23 | G32C U46G | 1.21e-05 ± 4.8e-07 | 349 ± 150 |  |  |  |  | 
24 | U31G A36C C70G | 7.04e-05 ± 3.2e-05 |  |  | 0.000105 ± 4.3e-05 |  |  | 
25 | U31G G59U | 3.05e-05 ± 9.5e-07 | 511 ± 160 |  |  |  | 2.88e-05 ± 1e-05 | 
26 | G32C A52U | < 1e-05 |  | < 1e-05 |  |  |  | 
27 | U31C C50G | 6.62e-05 ± 2.8e-05 |  | 2.9e-05 ± 1.3e-05 | 0.000104 ± 2e-05 | 8.9e-05 ± 1.3e-05 |  | 0.000114 ± 1.7e-05
28 | U31C U45G | 0.000845 ± 0.00014 | 1870 ± 570 |  | 0.000189 ± 2.7e-05 | 0.000505 ± 6.4e-05 | 0.000713 ± 9.2e-05 | 9.65e-05 ± 1.9e-05
29 | U31C G59A | 1.58e-05 ± 4.5e-06 |  |  |  |  |  | 
30 | U31C U56C | 0.00169 ± 0.00055 | 2910 ± 1200 |  | 0.000331 ± 5.8e-05 | 0.000644 ± 0.00011 | 0.00171 ± 0.00034 | 9.03e-05 ± 1.1e-05
31 | U31G C58G | 0.000125 ± 1.3e-05 | 1100 ± 400 |  | 5.51e-05 ± 1.3e-05 | 7.65e-05 ± 1.2e-05 | 0.000119 ± 1.3e-05 | 
32 | G32U C67U | 0.00034 ± 4.6e-05 | 1790 ± 580 |  | 0.000104 ± 1.3e-05 | 0.000166 ± 2.2e-05 | 0.000303 ± 2.5e-05 | 
33 | U31C A52U U65A | < 1e-05 |  |  |  |  |  | 
